Assay results reported in paper PMC4161306, “Regulation of Arabidopsis Flowering by the Histone Mark Readers MRG1/2 via Interaction with CONSTANS to Modulate FT Expression” (PLoS Genetics, 2014).

What was measured:
MRG2 = experiment: GST pull-down assay, His-tagged MRG2; type: binding, Arabidopsis; settings: in vitro, purified proteins from E. coli, Figure 5B
Protocol: (§1) MRG2 and MRG2C (442–984) cDNA were amplified with primers MRG2-1/MRG2-10 and MRG2-9/MRG2-10, respectively, and then cloned into pET-30a vector (Novagen, www.novagen.com). The resulting constructs and pET-30a-MRG2N were used for purification of His-tagged MRG2, MRG2C, and MRG2N proteins. CO cDNA was amplified using primers CO-1/CO-2, and then cloned into pGEX-4T-1 vector for purification of GST-fused CO proteins. Pulldown experiments were performed according to a previously described protocol.

CO [1] = experiment: Pull-down truncation analysis of MRG2 with GST-fused CO; type: binding, Arabidopsis; settings: in vitro pull-down, Figure 5B
Protocol: as §1

CO [2] = experiment: Bimolecular fluorescence complementation (BiFC) in tobacco leaf cells; type: cell-based, Arabidopsis; settings: split YFP, Nicotiana benthamiana leaves, 2–3 days after infiltration, Figure 5C
Protocol: BiFC was performed as described by Sun et al.. For BiFC assays, MRG2C cDNA was amplified using primers MRG2-11/MRG2-12, and then cloned into pXY103 and pXY106 vectors. CO cDNA was amplified by primers CO-3/CO-4, and then cloned into a pXY104 vector. Leaves of 4- to 8-week-old Nicotiana benthamiana plants were co-infiltrated with Agrobacterium tumefaciens strain […] carrying transgene constructs. Localization of BiFC fluorescence was observed 2–3 days after infiltration using a confocal laser scanning microscope (LSM 710, ZEISS, Germany).

B1: GST-fused CO: GST-fused CONSTANS protein purified from E. coli (protein)
chain: MLKQESNDIGSGENNRARPCDTCRSNACTVYCHADSAYLCMSCDAQVHSANRVASRHKRVRVCESCERAPAAFLCEADDASLCTACDSEVHSANPLARRHQRVPILPISGNSFSSMTTTHHQSEKTMTDPEKRLVVDQEEGEEGDKDAKEVASWLFPNSDKNNNNQNNGLLFSDEYLNLVDYNSSMDYKFTGEYSQHQQNCSVPQTSYGGDRVVPLKLEESRGHQCHNQQNFQFNIKYGSSGTHYNDNGSINHNAYISSMETGVVPESTACVTTASHPRTPKGTVEQQPDPASQMITVTQLSPMDREARVLRYREKRKTRKFEKTIRYASRKAYAEIRPRVNGRFAKREIEAEEQGFNTMLMYNTGYGIVPSF
modifications: left off: GST, end not stated, kept
notes: GST-fused CONSTANS protein purified from E. coli
pull-down of His-tagged MRG2 (MRG2): could pull-down MRG2

B2: MRG2C: MRG domain of MRG2, cDNA 442–984 (protein)
chain: RKQDSVDTEKNVLPSDNLLSFNIPPALRKQLLDDFEFVTQMQKLVQLPRSPNVDGILKKYIDSQMKKHGRVTDSLEEILKGLRCYFDKALPVMLLYNNERKQYEESVSGGVSPSTVYGAEHLLRLFVKLPELLVHVNMAEETLKELQDNFVDILRFLRKNQSVLFVSTYKAVEEMEKKEG
modifications: left off: His tag, end not stated, kept
binding to CO (CO [1]): contributed to binding to CO | interaction with CO in vivo (CO [2]): interacted in vivo

B3: MRG2N: chromodomain of MRG2, cDNA 1–369 (protein)
chain: MGSPNAAAETDLTTDDFIGDTRRDSGSDTETNTDCDGEDLPLLLLPAPPGHFEEGERVLAKHSDCFYEAKVLKVEFKDNEWKYFVHYIGWNKSWDEWIRLDCLLKHSDENIEKQKEQGLKQQG
modifications: left off: His tag, N-terminal, kept
binding to CO (CO [1]): not

B4: MRG2: Arabidopsis Morf Related Gene group protein MRG2 (protein, UniProt Q4V3E2 1-327, looked up)
Protein MRG2: MGSPNAAAETDLTTDDFIGDTRRDSGSDTETNTDCDGEDLPLLLLPAPPGHFEEGERVLAKHSDCFYEAKVLKVEFKDNEWKYFVHYIGWNKSWDEWIRLDCLLKHSDENIEKQKEQGLKQQGIKSAMAWKVSKMKPRSPNVARGRKRKQDSVDTEKNVLPSDNLLSFNIPPALRKQLLDDFEFVTQMQKLVQLPRSPNVDGILKKYIDSQMKKHGRVTDSLEEILKGLRCYFDKALPVMLLYNNERKQYEESVSGGVSPSTVYGAEHLLRLFVKLPELLVHVNMAEETLKELQDNFVDILRFLRKNQSVLFVSTYKAVEEMEKKEG
interaction with CO in vivo (CO [2]): interacted in vivo
